According to patent US20220356229A1 (published 2022):

target: SARS-CoV-2 full length Spike protein, wild type (SARS-CoV-2, UniProt P0DTC2 14-1208)

Row | Binder | bead binding signal (fold over isotype)
1 | antibody 348 (antibody, V domains shown) VH: QVQLVQSGSELKKPGASVKVSCKASGYTFTSYAMNWVRQAPGQGLEWMGWINTNTGNPTYAQGFTGRFVFSLDTSVSTAYLQISSLKAEDTAVYYCARDHELPNTSSWFGHFEYWGQGTLVTVSS VL: not shown | 869 fold over isotype
2 | antibody 340 (antibody, V domains shown) VH: QVQLVQSGAEVKKPGASVKVSCKASGYTFTSYDINWVRQATGQGLEWMGWMNPNSGNTGYAQKFQGRVTMTRNTSISTAYMELSSLRSEDTAVYYCARGRYCTGGVCWGDWYFDLWGRGTLVTVSS VL: QSVLTQPPSVSGAPGQRVTISCTGSSSNIGAGYDVHWYQQLPGTAPKFLIYGNSNRPSGVPDRFSGSKSGTSASLAITGLQAEDEADYYCQSYDSSLSGPVFGGGTKLTVL | 547 fold over isotype
3 | antibody 329 (antibody, V domains shown) VH: EVQLVESGGGLVQPGGSLRLSCAASGFTFSSYWMHWVRQAPGKGLVWVSRINSDGSSTSYADSVKGRFTISRDNAKNTLYLQMNSLRAEDTAVYYCAREGIVATITLDYWGQGTLVTVSS VL: not shown | 497 fold over isotype
4 | antibody 324 (antibody, V domains shown) VH: QVQLQESGPGLVKPSGTLSLTCAVSGGSISSSNWWSWVRQPPGKGLEWIGEIYHSGSTNYNPSLKSRVTISVDNSKNQFSLKLSSVTAADTAVYYCARESVAAAGISYYYYGMDVWGQGTTVTVSS VL: EIVLTQSPGTLSLSPGERATLSCRASQSVSGRYLAWYQQKPGQAPRLLIYGASSRATGIPDRFSGSGSGTDFTLTISRLEPEDFAVYYCQHYGSSPGTFGQGTRLEIK | 1.13 fold over isotype
5 | antibody 328 (antibody, V domains shown) VH: QVQLQESGPGLVKPSGTLSLTCAVSGGSISSSNWWSWVRQPPGKGLEWIGEIYHSGSTNYNPSLKSRVTISVDNSKNQFSLKLSSVTAADTAVYYCARESVAAAGISYYYYGMDVWGQGTTVTVSS VL: DIQMTQSPSSLSASVGDRVTITCRASQGIRNDLGWYQQKPGKAPKRLIYAASSLQSGVPSRFSGSGSGTEFTLTVSGLQPEDFATYYCLQYNSSPLTFGGGTKVEIK | 1.2 fold over isotype
6 | antibody 343 (antibody, V domains shown) VH: QVQLVESGGDVVQPGTSLRLSCAASGFTFNNYGFHWVRQAPGKGLEWVALISSDGASTHYADSVKGRFTISRDSSVNTLYLQMNSLSLEDTAVYYCATGHCGTTCYYFDYWGQGTLVSVSS VL: DIQVTQSPSYLSASVGDRVTITCRASQTISTFLQWYQQKVGKAPKLLIYAASTLQSGVPSRFSGSGSGTDFSLTISSLQPEDFATYYCQQSYSAPLSFGGGTKVEIK | 1.2 fold over isotype
7 | antibody 327 (antibody, V domains shown) VH: QVQLVESGGGVVQPGRSLRLSCAASGFNLSNYAMHWVRQASGKGLEWVSLISYDGSIKYYTDSVKGRFTVSGDNSKNTLFLQMNSLRPDDSALYYCVRGGVSGPNSFDMWGQGTTVTVSS VL: DVVMTQSPLSLPVTLGQPASISCRSSQSLVYSDGNTYVNWFQQRPGQSPRRLIYQVSIRASGVPDRFSGSGSGTDFALKISRVEAEDVGIYYCMQGTHWPVTFGQGTKVEIK | 413 fold over isotype
8 | antibody 363 (antibody, V domains shown) VH: EVQLLESGGGLVQPGGSLRLSCAASGFTFSTYAMSWVRQAPGKGLEWVSAISGSGGSTYYADSVKGRFTISRDNSKNTLYLQMNSLRAEDTAVYYCASGYSPDYWGQGTLVTVSS VL: not shown | 1030 fold over isotype
9 | antibody 326 (antibody, V domains shown) VH: QITLKESGPTLVKPTQTLTLTCTFSGFSLNTSGVGVGWIRQPPGKALEWLSLIFWNDDKRYSPSLRSRLTITKDTSKNQVVLTMTNMDPVDTATYFCAHRNSGWSLKFDSWGQGSLVTVSA VL: DIQMTQSPSSVSASVGDRVTITCRARQGISSWLVWYQQKPGKAPKLLIFGASSLQSGVPSRFNASGTGTEFTLTISSLQPEDFATYYCQQADSFPITFGQGTRLEIK | 193 fold over isotype
10 | antibody 332 (antibody, V domains shown) VH: QVTLRESGPALVKPTQTLTLTCTFSGFSLSTSGMCVSWIRQPPGKALEWLALIDWDDDKYYSTSLKTRLTISKDTSKNQVVLTMTNMDPVDTATYYCARIHDDILTGYHYVDYWGQGTLVTVSS VL: not shown | 1.22 fold over isotype
11 | antibody 344 (antibody, V domains shown) VH: QVQLVESGGGVVQPGRSLRLSCAASGFTFSSYAMHWVRQAPGKGLEWMAVISYDGSNKYYADSVKGRFTISRDNSKNTLYLQMNSLRAEDTAVYFCAKGYSGSYYEPFDYWGQGTLVTVSS VL: not shown | 404 fold over isotype
12 | antibody 331 (antibody, V domains shown) V domain 1: QITLKESGPTLVKPTETLTLTCSFSGFSLTKTGEAAGWIRQAPGRALEWVTVIFWDDDKRYSPSLQNRISVTKDTSKNQVVLRMTNVARFDTGTYFCWAMGGPGKEYFGQGTLVAVSS V domain 2: QSVLTQPPSVSGAPGQRVTISCTGTSSSIGPYSDVHWYQHVSGKAPRLLIFGNSNRPSGVPDRFSGSKSGTSASLVIAGLQAEDEADYYCQSYDSSLGEIYVFGTGTTVTVL | 850 fold over isotype
13 | antibody 339 (antibody, V domains shown) V domain 1: QITLKESGPTLVKPTETLTLTCSFSGFSLTRTGEAAGWIRQAPGRALEWVTVIFWDDDKRYSPSLQSRLTVTKDTSKNQVVLTMTNVARFDTATYFCWAMGGPGKEYFGQGTQVAVSS V domain 2: QSVLTQPPSVSGAPGQRVTISCTGTSSSIGPYSDVHWYQHVSGKAPRLLIFGNSNRPSGVPDRFSGSKSGTSASLVIAGLQAEDEADYYCQSYDSSLGEIYVFGTGTTVTVL | 874 fold over isotype
14 | antibody 345 (antibody, V domains shown) VH: QVQLQESGPGLVKPSQTLSLTCTVSGGSISSGDYYWSWIRQPPGKGLEWIGYIYYSGSTYYNPSLKSRVTISVDTSKNQFSLKLSSVTAADTAVYYCARVGMVDNWNFEGNWFDPWGQGTLVTVSS VL: QSALTQPRSVSGSPGQSVTISCTGTSSDVGGYNYVSWYQQHPGKAPKLMIYDVSKRPSGVPDRFSGSKSGNTASLTISGLQAEDEADYYCCSYAGSVVFGGGTKLTVL | 562 fold over isotype
15 | antibody 333 (antibody, V domains shown) VH: QVHLVESGGGVVLPGRSLRLSCSASQFIFSNYDMHWVRQSPGMGLEWVAGISSDGSDKYYIDSVRGRFTISRDNAKNTLFLQMNSLTTEDTAVYSCAKGGGKFGQYWGRGTLVTVSS VL: AIQMTQSPSSLSASVGDRVTITCRASQVIRNDLAWFQQKPGEAPNLLVYSASNLQSGVPSRFSGSGSGTDFTLTISSLQPEDFATYYCLQDYSYPYTFGQGTKLDMK | 1.08 fold over isotype

target: SARS-CoV-2 full length Spike protein, wild type, expressed on CHO cells (SARS-CoV-2, UniProt P0DTC2 14-1273)

Row | Binder | median fluorescence intensity, fold over isotype control
16 | anti-SARS-CoV-2 antibody 936 (antibody, V domains shown) VH: EVQLVESGGGLVQPGRSLTLSCAGSGFTFDDYAMHWVRQAPGKGLEWVSGISWNSGSIGYADSVKGRFTISRDNAKNSLYLQMNSLRAEDTALYYCAKDVSYDSSGYYNNAFDIWGQGTMVTVSS VL: DIQLTQSPSFLSASVGDRVTITCRASQGISSYLAWYQQKPGKAPKLLIYAASTLQSGVPSRFSGSGSGTEFTLTISSLQPEDFATYYCQQLYSYPVTFGQGTRLEIKR | 33.1 fold over isotype
17 | anti-SARS-CoV-2 antibody 1135 (antibody, V domains shown) VH: EVQLVESGGGLVQPGRSLRLSCAASGLTFEDYAMHWVRQVPGKGLEWVSGISWNSGTIGYADSVKGRFIISRDNAKNSLYLQMRSLRAEDTALYYCAKDVGFGELLYYAFDIWGQGTMVTVSS VL: QSALTQPASVSGSPGQSITISCTGTSSDVGGYNYVSWYQQHPGKAPKLMIYDVSNRPSGVSNRFSGSKSGNTASLTISGLQAEDEADYYCSSYTSSSTVVFGGGTKLTVLG | 10.9 fold over isotype
18 | anti-SARS-CoV-2 antibody 1036 (antibody, V domains shown) VH: QVQLVQSGAEVKKPGSSVKVSCKASGGTLSSYTISWVRQAPGQGLEWMGRIIPILGIADYAQKFQGRVTITADKSTTTAYMDLSSLGSEDTALYYCASAPKDWSSGFDYYYGMDVWGQGTMVTVSS VL: DIVMTQTPLSLSVTPGQPASISCKSSQSLLNSDGKTYLYWYLQKAGQPPQLLIYEVSNRFSGVPERFSGSGSGTDFTLKISRVEAEDVGVYYCMQSVQLPPYTFGQGTKLEITR | 10.2 fold over isotype
19 | anti-SARS-CoV-2 antibody 1139 (antibody, V domains shown) VH: QVQLVQSGAEVKKPGASVKVSCKASGYTFSSYEINWVRQATGQGLEWMGRMTLNSGNTGYAQNFQGRVTMTRDTSISTAYMELSGLRSEDTAVYYCARMRSGWPTHGRPDDYWGQGTLVTVSS VL: not shown | 20.3 fold over isotype
20 | anti-SARS-CoV-2 antibody 1149 (antibody, V domains shown) VH: QVQLVQSGAEVKKPGASVKVSCKASGYTFASYDINWVRQATGQGPEWMGWMIPNIGNTGYAQKFQGRVTMTRNTSISTAYMELSSLTSEDTAVYYCARVSRLFNDFGLRHEAPVDFWGQGTRVTVSS VL: QSVLTQPPSVSGAPGQRVTISCTGSSSNIGAGYDVHWYQQLPGTAPKLLIYGYSSRPSGVPDRFSGSKSGTSASLAITGLQAEDEADYYCQSYDSSLSVLFGGGTKLTVLG | 19.2 fold over isotype
